Patent US20090074795A1, “Methods for addressing ocular diseases through interference with the wnt signaling pathway” (priority 2007, published 2009)

Columns and labels:
OIR rats = assay: Pre-retinal NV and HIF-1α in retinal sections of OIR rats; type: in vivo, rat
Description: Because pre-retinal NV (vasculature growing into the vitreous space) is a characteristic change of diabetic retinopathy, the effect of DKK1 was evaluated on pre-retinal NV. DKK1 was injected into the right vitreous of the OIR rats and BSA into the left vitreous at P15. At P18, pre-retinal NV was examined in retinal sections. […] Furthermore, the nuclear translocation and expression levels of HIF-1α, a key transcription factor activating VEGF expression, were decreased in the retina of the DKK1-injected eye, compared to the eye treated with BSA.
According to embodiments of experimental data and as shown in FIGS. 20A-20C, Brown Norway (BN) rats were exposed to hyperoxia for 5 days (P7-P12). At age of P15, the rats received a single injection of 3 μg of DKK1 into the vitreous of the right eyes and BSA into the left eyes. The eyes were sectioned at P18. Representative retinal sections from normal control rats (FIG. 20A), eyes of OIR rats injected with BSA (FIG. 20B), and OIR retina injected with DKK1 (FIG. 20C) were triple stained with three antibodies: Retinal vascular EC was stained with an antibody against CD31 (Red); the retinal ischemia stress status was detected by an antibody against GFAP (Blue), and the levels and nuclear translocation of HIF-1α were determined by an antibody against HIF-1α (Green).

Vldlr^−/− mice = assay: Subretinal injection of purified mouse DKK1 in Vldlr−/− mice (β-catenin phosphorylation, VEGF in eyecup); type: in vivo
Description: To confirm the association of the wnt pathway activation with VEGF over-expression in Vldlr^−/− mice, 5 μg purified mouse DKK1, a specific inhibitor of the wnt signal pathway by binding with LRP5/6, were injected into the subretinal space of the Vldlr^−/− mice into one eye and the same amount of a control protein (BSA) into the contralateral eye. Twenty-four hours after the injection, β-catenin phosphorylation and VEGF levels in the eyecup were measured by western blot analysis.
(§1) Vldlr^−/− mice received a subretinal injection of 5 μg purified mouse DKK1 into the right eyes, and the same amount BSA into the left eyes. According to embodiments shown in FIG. 9A, The eyecups were dissected 24 h following the injection for the following analyses, phosphorylated β-catenin and VEGF levels were measured by Western blot analysis of a representative mouse eyecup using the anti-phosphorylated β-catenin and anti-VEGF antibodies, respectively. According to embodiments shown in FIG. 9B, VEGF protein levels in Vldlr^−/− eyecups were measured using ELISA. According to embodiments shown in FIG. 9C, VEGF mRNA levels in the Vldlr^−/− eyecups were measured using quantitative real-time RT-PCR. Values are mean±SD (n=4). According to embodiments shown in FIGS. 9D-9G, Vldlr^−/− mice were injected with 5 μg/eye BSA into the subretinal space of the left eye (FIGS. 9D and 9F) and the same amount of DKK1 into the right eye (FIGS. 9E and 9G). The ocular sections were immunostained with an anti-VEGF antibody (FIGS. 9D and 9E) and an anti-β-catenin antibody (FIGS. 9F and 9G). 400×. PRL, photoreceptor layer. According to embodiments shown in FIGS. 9H and 9I, HUVEC were transfected with the VLDLR siRNA. The transfected cells were treated with 10 μg/ml human DKK1or BSA. VEGF protein was measured in the culture medium by ELISA (FIG. 9H) and the VEGF mRNA measured in the cells by real-time RT-PCR, normalized by 18s RNA and expressed as arbitrary unit (mean±SD, n=3) (FIG. 9I), 24 hours after the addition of DKK1.
VEGF ELISA: The human VEGF QuantiGlo ELISA kit (R&D Systems, Inc., Minneapolis, Minn.) was used to measure VEGF levels in HUVEC and ARPE19 cells, and the mouse VEGF Quantikine ELISA kit (R&D Systems, Inc.) was used for mouse tissues following the manufacturer's protocol. The samples of the culture medium were concentrated 10 times, and the samples from mouse tissues were diluted 10 times to ensure that the VEGF concentration fell within the range of the VEGF standard curves.
Western Blot Analysis: The same amount (100 μg) of total proteins from mouse eyecups were used for Western blot analysis using specific primary antibodies for each protein and blotted with an horseradish peroxidase-conjugated secondary antibody. The signal was developed with a chemiluminescence detection kit (ECL; Amersham Biosciences). Blots were then stripped and re-blotted with an antibody specific for β-actin. Each protein band was semiquantified by densitometry and normalized by β-actin levels in the same gel.
Quantitative Real-time Reverse Transcription (RT)-PCR: Mice eyes were enucleated immediately after death into chilled diethylpyrocarbonate-treated normal saline, and the retinas were dissected. Total RNA was isolated using a commercial kit (Qiagen, Santa Clarita, Calif.). […] Fluorescence changes were monitored after each cycle. […] The average CT (threshold cycle) of fluorescence unit was used to analyze the mRNA levels. […]

HUVEC = assay: DKK1 on VEGF over-expression in HUVEC transfected with VLDLR siRNA; type: cell-based; settings: 10 μg/ml human DKK1, 24 hours, ELISA and RT-PCR, vs BSA
Description: The regulatory roles of VLDLR and the wnt pathway in VEGF expression in cultured endothelial cells was also investigated.
as §1, with “The ocular sections were immunostained with an anti-VEGF antibody (FIGS. 9D and 9E) and an anti-β-catenin antibody (FIGS. 9F and 9G). 400×. PRL, photoreceptor layer. According to embodiments shown in FIGS. 9H and 9I, HUVEC were transfected with the VLDLR siRNA. The transfected cells were treated with 10 μg/ml human DKK1or BSA.” left out, “DKK1. […]” for “DKK1.”

[1] = 5 μg/eye subretinal, immunohistochemistry, vs BSA contralateral eye

B1: DKK1: Purified Dickkopf-1 protein (R&D System), specific inhibitor of the wnt pathway binding LRP5/6; mouse protein in mice, human in HUVEC (protein, UniProt O54908 32-272; O54908 32-272, looked up)
Dickkopf-related protein 1 1: TLNSVLINSNAIKNLPPPLGGAGGQPGSAVSVAPGVLYEGGNKYQTLDNYQPYPCAEDEECGSDEYCSSPSRGAAGVGGVQICLACRKRRKRCMRHAMCCPGNYCKNGICMPSDHSHFPRGEIEESIIENLGNDHNAAAGDGYPRRTTLTSKIYHTKGQEGSVCLRSSDCAAGLCCARHFWSKICKPVLKEGQVCTKHKRKGSHGLEIFQRCYCGEGLACRIQKDHHQASNSSRLHTCQRH
Dickkopf-related protein 1 2: TLNSVLINSNAIKNLPPPLGGAGGQPGSAVSVAPGVLYEGGNKYQTLDNYQPYPCAEDEECGSDEYCSSPSRGAAGVGGVQICLACRKRRKRCMRHAMCCPGNYCKNGICMPSDHSHFPRGEIEESIIENLGNDHNAAAGDGYPRRTTLTSKIYHTKGQEGSVCLRSSDCAAGLCCARHFWSKICKPVLKEGQVCTKHKRKGSHGLEIFQRCYCGEGLACRIQKDHHQASNSSRLHTCQRH
modifications: mouse protein in mice, human in HUVEC
OIR rats; 3 μg intravitreal at P15, sections at P18, vs BSA
  nuclear translocation and expression levels of HIF-1α in the retina: decreased
OIR rats; 3 μg intravitreal at P15, sections at P18, vs BSA contralateral eye
  neovascular endothelial cells (EC) in the vitreous space (pre-retinal NV): significantly fewer
Vldlr^−/− mice; 5 μg subretinal, 24 h, real-time RT-PCR, vs BSA
  VEGF mRNA levels in Vldlr−/− eyecups: significantly decreased
Vldlr^−/− mice; 5 μg subretinal, 24 h, western blot, vs BSA contralateral eye
  phosphorylation of β-catenin in eyecup: increased phosphorylation of β-catenin
Vldlr^−/− mice; 5 μg subretinal, 24 h, western blot/ELISA, vs BSA
  VEGF protein levels in Vldlr−/− eyecups: significantly decreased
Vldlr^−/− mice; [1]
  levels of VEGF in the RPE: significantly decreased
  levels of β-catenin in the RPE: significantly decreased
HUVEC
  VEGF over-expression induced by the VLDLR siRNA: blocked the VEGF over-expression
